Laboratory results from US20230201308A1, “TREATMENT OF CORONAVIRUS INFECTION WITH […]” (Eiger Biopharmaceuticals, Inc., priority 2020, published 2023).
Like-named read-outs stand apart in the source and are kept apart here.

System: SARS-CoV-2

B1: pegylated interferon lambda-1a (protein)
chain: MKPTTTGKGCHIGRFKSLSPQELASFKKARDALEESLKLKNWSCSSPVFPGNWDLRLLQVRERPVALEAELALTLKVLEAAAGPALEDVLDQPLHTLHHILSQLQACIQPQPTAGPRPRGRLHHWLHRLQEAPKKESAGCLEASVTFNLFRLLTRDLKYVADGNLSLRTSTHPEST
modifications: PEG
notes: 180 mcg subcutaneous injection
- risk reduction by dominant variant (August 2021 to December 2021, Delta predominant): 46%
- risk reduction by dominant variant (December 2021 to February 2022, Omicron dominant): 83%
- # events (variant analysis) (Full Study, June 2021-February 2022, N 916): 916 (25)
- risk reduction by dominant variant (June 2021 to August 2021, Gamma predominant): 25%
- HR, all-cause mortality or hospitalization due to COVID-19, Time-to-Event analysis (human, in vivo): 0.00
- RR, all-cause mortality or hospitalization due to COVID-19 (human, in vivo): 0.14
- estimated effect across variants (human, in vivo): beneficial across all variants
- efficacy across SARS-CoV-2 variants (viral sequencing on all patients): pan-variant efficacy in all variants tested, including omicron
